Experimental data: publication PMC8422858

Biological target: His-tagged recombinant human apolipoprotein L3 (rHis-APOL3) (human)
Assay: native MS

stoichiometry N: 2
Substance: His-tagged recombinant human apolipoprotein L3 (rHis-APOL3) (natural protein)
